These results are taken from publication PMC12075686, “Structural basis of phosphorylation-independent nuclear import of CIRBP by TNPO3” (Nature Communications, 2025).

Where two headings read alike, the source gives them in different places. No end group written: not given here.

The target in test [1] is SRSF1 RS-NLS (Homo sapiens) (UniProt Q07955). The test can be described thus: FP. The note with it: cited from earlier work.
The target of test [2] is CPSF6 RS-NLS (Homo sapiens) (UniProt Q16630). The test can be described thus: FP. The following applies: cited from earlier work.
In test [3] the target is Transportin 3 (TNPO3), full-length wild type (human) (UniProt Q9Y5L0). Description: ITC; 100 µM ligand in the syringe injected (28 x 10 µL) into 10 µM TNPO3 (WT or C511A) in the cell; 25 °C; 50 mM Tris-HCl pH 7.5, 150 mM NaCl, 2 mM TCEP, 0.04% NaN3. Background: Isothermal titration calorimetry measures the heat released or taken up as one component is titrated into another.

For test [4], the system named is TNPO3. Description: NMR binding studies with TNPO3 (1H-15N HSQC, 1H-13C HMQC, 1H 1D, STD). The note with it: pH 6.7. Also noted: species or system human. As for the experimental part: All NMR studies for TNPO3 were carried out using the wild type protein. Protein samples for ^1H-^13C HMQC were prepared at a concentration of 100 μM and equilibrated in a buffer containing 50 mM Tris–HCl, pH 6.7, 150 mM NaCl, 2 mM TCEP and 10% D2O. Spectral acquisitions for TNPO3 free and in complex with CIRBP^RSY and SRSF1^RS, respectively were performed at 298 K on a 700 MHz Bruker Avance III NMR spectrometer equipped with a TCI triple-resonance cryoprobe. The pulse program was sfhmqcf2gpph and the spectra were recorded with 32 scans, interscan delay of 1 s, 160 points in F1, 1024 points in F2, 5283.879 Hz spectral width in F1, and 11,160.714 Hz spectral width in F2. Spectra were processed using Topspin 4.1.3.
Spectral acquisitions for TNPO3 free and in complex with mCIRBP^RSY, pCIRBP^RSY, and pSRSF1^RS, respectively, were performed at 298 K on a 600 MHz Bruker Avance Neo NMR spectrometer equipped with a TXI 600S3 probehead. The pulse program was hmqcgpphwg and the spectra were recorded with 64 scans, interscan delay of 1 s, 200 points in F1, 1024 points in F2, 4545.455 Hz spectral width in F1, and 7812.500 Hz spectral width in F2. Spectra were processed using Topspin 4.3.0.
For ^1H-^15N HSQC spectra, protein samples were equilibrated in a buffer containing 50 mM Tris–HCl, pH 6.7, 150 mM NaCl, 2 mM TCEP, 0.04% NaN3, and 10% D2O (with additional 20 mM MgCl2 for CIRBP phosphorylation kinetics). Data were recorded at 298 K on the 600 MHz Bruker Avance Neo NMR spectrometer equipped with a TXI 600S3 probehead. The pulse program was hsqcetfpf3gpsi and was recorded with 8-16 scans, interscan delay of 1 s, 128 points in F1, 1024 points in F2, 1949.318 Hz spectral width in F1, and 9615.385 Hz spectral width in F2. Spectra were processed using Topspin 4.3.0.

The target in test [5] is T1, TNPO3 WT (Homo sapiens, UniProt Q9Y5L0).
T1 sequence (Q9Y5L0 1-923): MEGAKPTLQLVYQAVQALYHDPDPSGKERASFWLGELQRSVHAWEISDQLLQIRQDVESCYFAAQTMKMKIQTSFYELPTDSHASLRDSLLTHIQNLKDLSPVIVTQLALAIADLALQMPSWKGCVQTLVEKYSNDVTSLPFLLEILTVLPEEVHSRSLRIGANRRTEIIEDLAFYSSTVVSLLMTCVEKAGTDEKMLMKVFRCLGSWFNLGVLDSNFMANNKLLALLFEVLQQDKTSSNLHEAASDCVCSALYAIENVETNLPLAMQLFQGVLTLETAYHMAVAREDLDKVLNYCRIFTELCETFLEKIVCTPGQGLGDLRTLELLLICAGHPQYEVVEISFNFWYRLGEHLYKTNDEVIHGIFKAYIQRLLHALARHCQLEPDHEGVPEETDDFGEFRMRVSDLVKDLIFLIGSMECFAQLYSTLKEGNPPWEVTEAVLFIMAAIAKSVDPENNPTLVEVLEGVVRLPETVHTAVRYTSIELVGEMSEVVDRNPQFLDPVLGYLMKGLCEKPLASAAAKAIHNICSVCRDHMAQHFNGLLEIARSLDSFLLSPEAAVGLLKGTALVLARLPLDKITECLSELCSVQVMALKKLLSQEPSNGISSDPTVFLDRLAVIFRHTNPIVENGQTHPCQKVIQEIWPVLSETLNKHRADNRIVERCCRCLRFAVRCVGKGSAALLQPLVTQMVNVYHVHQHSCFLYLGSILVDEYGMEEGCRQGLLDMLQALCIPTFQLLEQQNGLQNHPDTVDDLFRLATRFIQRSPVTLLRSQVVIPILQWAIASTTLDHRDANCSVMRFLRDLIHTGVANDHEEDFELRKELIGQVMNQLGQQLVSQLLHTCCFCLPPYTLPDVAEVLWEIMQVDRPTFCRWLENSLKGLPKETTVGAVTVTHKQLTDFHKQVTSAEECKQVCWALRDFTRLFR
The test can be described thus: ITC, ligand titrated into TNPO3 WT. Type of test: binding. The note with it: ITC, TNPO3 WT; for Kd: 25 °C, pH 7.5, read-out: TNPO3 binding Kd. As for the experimental part: ITC has been performed by a Malvern Microcal VP-ITC at 25 °C for all binding studies. Samples have been dissolved in Tris buffer containing 50 mM Tris–HCl, 150 mM NaCl, 2 mM TCEP, and 0.04% NaN3 at pH 7.5. Binding studies of CIRBP^RSY and SRSF1^RS were performed with TNPO3 WT, and studies of CIRBP (157–172) and its mutants/phosphorylations were performed with TNPO3 C511A, respectively. Injection has been carried out by a syringe containing ligand solution of 100 μM, which adds ligand step-wise into the cell containing 10 μM TNPO3 during 28 injections of 10 μL each. Data analysis, curve fitting, and calculation of Kd, ΔH, and ΔS have been carried out using Origin-based 7.0 software provided by the manufacturer. All replicated ITC data are shown in Supplementary Fig. 6 and Supplementary Table 1.

The target in test [6] is T2, Transportin 3 (TNPO3), full-length wild type (human, UniProt Q9Y5L0 1-923).
T2 construct: Transportin 3 (TNPO3), human, full-length wild type; For the NMR experiments made 15N-labelled with 13C-methyl labelling of isoleucine and methionine side chains ([IM-methyl 13C]); Vector pETM11-His6-protein A with a TEV site downstream of the protein A tag; also called TNPO3 WT; TNPO3 FL WT; source: E. coli BL21-(DE3) Star, purified (Ni-NTA, TEV cleavage, second Ni-NTA, SEC Superdex 200); not …
T2 sequence (looked up): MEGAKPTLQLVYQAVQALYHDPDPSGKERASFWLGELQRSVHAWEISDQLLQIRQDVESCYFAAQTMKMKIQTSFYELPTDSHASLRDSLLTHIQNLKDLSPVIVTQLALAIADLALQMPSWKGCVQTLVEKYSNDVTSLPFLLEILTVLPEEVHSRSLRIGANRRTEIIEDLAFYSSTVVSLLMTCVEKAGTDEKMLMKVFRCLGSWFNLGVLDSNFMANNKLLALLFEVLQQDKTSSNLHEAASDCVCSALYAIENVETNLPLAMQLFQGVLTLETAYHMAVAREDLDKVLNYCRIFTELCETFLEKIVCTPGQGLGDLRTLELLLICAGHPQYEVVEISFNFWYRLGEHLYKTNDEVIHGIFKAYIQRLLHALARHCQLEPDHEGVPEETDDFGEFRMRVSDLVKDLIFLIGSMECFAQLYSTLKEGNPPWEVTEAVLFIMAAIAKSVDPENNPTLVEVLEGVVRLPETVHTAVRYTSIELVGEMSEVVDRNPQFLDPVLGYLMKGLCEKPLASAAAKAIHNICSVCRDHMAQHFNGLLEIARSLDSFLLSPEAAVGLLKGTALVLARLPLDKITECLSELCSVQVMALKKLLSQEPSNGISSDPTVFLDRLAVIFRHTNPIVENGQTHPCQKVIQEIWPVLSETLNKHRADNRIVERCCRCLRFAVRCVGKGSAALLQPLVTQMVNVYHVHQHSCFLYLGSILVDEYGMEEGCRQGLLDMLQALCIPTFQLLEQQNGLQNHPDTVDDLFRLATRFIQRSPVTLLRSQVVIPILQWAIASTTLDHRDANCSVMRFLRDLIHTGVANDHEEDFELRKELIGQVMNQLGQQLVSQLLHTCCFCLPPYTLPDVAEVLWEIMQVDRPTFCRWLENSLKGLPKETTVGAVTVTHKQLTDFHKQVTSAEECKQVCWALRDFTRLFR
Description: NMR titration; 1H NMR spectra of 50 µM peptide free and with a stoichiometric amount (50 µM) of TNPO3 WT; line broadening of peptide signals. The note with it: both partners purified.

Sequence of SRSF1 RS-NLS (Homo sapiens) (Q07955 198-227): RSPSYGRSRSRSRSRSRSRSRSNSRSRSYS
Sequence of CPSF6 RS-NLS (Homo sapiens) (Q16630 490-551): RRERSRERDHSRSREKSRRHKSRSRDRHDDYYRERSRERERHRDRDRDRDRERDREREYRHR

The term Kd denotes the concentration at which binding is half-saturated. Regarding TNPO3 (from UniProt Q9Y5L0), the results for the Kd in test [1] and in test [2] were 1300 nM and 3400 nM, respectively.

The molecule “SR/RS-NLS of SRSF1, residues 195-211, phosphorylated in vitro by SRPK1 (from UniProt Q07955 195-211) (domain or fragment)” displayed an equilibrium dissociation constant (Kd) in test [3] of 2420 nM.

For “pSRSF1^RS: SRSF1^RS phosphorylated in vitro using recombinant SRPK1 (DGPRSPSYGRSRSRSRS; also: multiple phosphoserines, sites not listed) [reference compound]”, the “spectral changes of 15N-labeled cargo upon addition of TNPO3 (1H,15N HSQC)” value in test [4] (60 µM cargo, one stoichiometric equivalent of TNPO3, 298 K) is reported as “extensive line broadening of several NMR signals”. The “chemical shift perturbations of TNPO3 methyl groups upon ligand addition (1H,13C HMQC)” value in test [4] (100 µM [IM-methyl 13C] labeled TNPO3, one stoichiometric equivalent of ligand, 298 K) was “led to CSPs of several TNPO3 ^1H,^13C cross-peaks”. Besides, in test [5] (replicate 1 (rep1)), the equilibrium dissociation constant (Kd) came to 2490 ± 400 nM and the ΔS result is listed as “–9.12 cal/mol/deg”. In test [5] (replicate 2 (rep2)), the Kd came to 2460 ± 500 nM and the ΔS entry was “–34.0 cal/mol/deg”.

B1: RBMX (276-291) synthetic peptide (peptide, UniProt P38159 276-291, looked up)
peptide: PSGGSYRDSYESYGNS
notes: also called RBMX^RSY (276–291); source: synthetic peptide (Peptide Specialty Laboratories GmbH)
On to B1, for which the binding result in test [6] was “binds”.
